B1: BAR/IMD domain-containing adapter protein 2 (Homo sapiens), Q9UQB8-4 (parent)
chain: MSLSRSEEMHRLTENVYKTIMEQFNPSLRNFIAMGKNYEKALAGVTYAAKGYFDALVKMGELASESQGSKELGDVLFQMAEVHRQIQNQLEEMLKSFHNELLTQLEQKVELDSRYLSAALKKYQTEQRSKGDALDKCQAELKKLRKKSQGSKNPQKYSDKELQYIDAISNKQGELENYVSDGYKTALTEERRRFCFLVEKQCAVAKNSAAYHSKGKELLAQKLPLWQQACADPSKIPERAVQLMQQVASNGATLPSALSASKSNLVISDPIPGAKPLPVPPELAPFVGRMSAQESTPIMNGVTGPDGEDYSPWADRKAAQPKSLSPPQSQSKLSDSYSNTLPVRKSVTPKNSYATTENKTLPRSSSMAAGLERNGRMRVKAIFSHAAGDNSTLLSFKEGDLITLLVPEARDGWHYGESEKTKMRGWFPFSYTRVLDSDGSDRLHMSLQQGKSSSTGNLLDKDDLAIPPPDYGAASRAFPAQTASGFKQRPYSVAVPAFSQGLDDYGARSMSSGSGTLVSTV

Variants of: B1
Settings: with vasp_human VASP

effect of a mutation on the interaction	Variant
disrupting interaction	MSLSRSEEMHRLTENVYKTIMEQFNPSLRNFIAMGKNYEKALAGVTYAAKGYFDALVKMGELASESQGSKELGDVLFQMAEVHRQIQNQLEEMLKSFHNELLTQLEQKVELDSRYLSAALKKYQTEQRSKGDALDKCQAELKKLRKKSQGSKNPQKYSDKELQYIDAISNKQGELENYVSDGYKTALTEERRRFCFLVEKQCAVAKNSAAYHSKGKELLAQKLPLWQQACADPSKIPERAVQLMQQVASNGATLPSALSASKSNLVISDPIPGAKPLPVPPELAPFVGRMSAQESTPIMNGVTGPDGEDYSPWADRKAAQPKSLSPPQSQSKLSDSYSNTLPVRKSVTPKNSYATTENKTLPRSSSMAAGLERNGRMRVKAIFSHAAGDNSTLLSFKEGDLITLLVPEARDGGHYGESEKTKMRGWFPFSYTRVLDSDGSDRLHMSLQQGKSSSTGNLLDKDDLAIPPPDYGAASRAFPAQTASGFKQRPYSVAVPAFSQGLDDYGARSMSSGSGTLVSTV [W413G]
